Reference: patent US20150010526, “EVALUATION AND IMPROVEMENT OF NUCLEASE CLEAVAGE SPECIFICITY” (President and Fellows of Harvard College, published 2015)

B1: VF2468 site 11 PTK2B (dsDNA)
DNA 1: AGCAGCGTCTCCCTTGAGTGATGG
DNA 2: CCATCACTCAAGGGAGACGCTGCT
B2: VF2468 site 23 (dsDNA)
DNA 1: AGCAGCGACGCCTGGGAGTGAGGT
DNA 2: ACCTCACTCCCAGGCGTCGCTGCT
B3: VF2468 site 68 PDE9A (dsDNA)
DNA 1: AGCACCGTCCCCCTCAGTGAGGC
DNA 2: GCCTCACTGAGGGGGACGGTGCT
B4: VF2468 site 73 (dsDNA)
DNA 1: AGCAAAGTCTGTACTGAGTGAGGG
DNA 2: CCCTCACTCAGTACAGACTTTGCT
B5: VF2468 site 72 (dsDNA)
DNA 1: AGAAACGTCGTGGAGGAGTGAGGG
DNA 2: CCCTCACTCCTCCACGACGTTTCT
B6: VF2468 site 87 (dsDNA)
DNA 1: AGCATTGTCTCATGTGAGTGAGGT
DNA 2: ACCTCACTCACATGAGACAATGCT
B7: VF2468 site 79 (dsDNA)
DNA 1: AGCACCGTGGCTTCGAGTGAGGC
DNA 2: GCCTCACTCGAAGCCACGGTGCT
B8: VF2468 site 18 (dsDNA)
DNA 1: AGCAGAGTCAGACTTGAGTGAGGT
DNA 2: ACCTCACTCAAGTCTGACTCTGCT
B9: VF2468 site 80 (dsDNA)
DNA 1: AGCACGGTCATGATGAGTGAGGC
DNA 2: GCCTCACTCATCATGACCGTGCT
B10: CCR5-224 site 1 CCR5 (dsDNA)
DNA 1: GTCATCCTCATCCTGATAAACTGCAAAAG
DNA 2: CTTTTGCAGTTTATCAGGATGAGGATGAC
B11: VF2468 site 1 VEGF-A promoter (dsDNA)
DNA 1: AGCAGCGTCTTCGAGAGTGAGGA
DNA 2: TCCTCACTCTCGAAGACGCTGCT
B12: CCR5-224 site 16 (dsDNA)
DNA 1: GTCTTCCTGATGCTACCAAACTGGAAAAG
DNA 2: CTTTTCCAGTTTGGTAGCATCAGGAAGAC
B13: CCR5-224 site 11 TACR3 (dsDNA)
DNA 1: GTCATCTTCATCAGCATAAACTGTAAAGT
DNA 2: ACTTTACAGTTTATGCTGATGAAGATGAC
B14: CCR5-224 site 21 (dsDNA)
DNA 1: GTCAACCTCAACACCTACAGACTGCAAAAG
DNA 2: CTTTTGCAGTCTGTAGGTGTTGAGGTTGAC
B15: CCR5-224 site 25 WBSCR17 (dsDNA)
DNA 1: GTTATCCTCAGCAAACTAAAACTGGAACAG
DNA 2: CTGTTCCAGTTTTAGTTTGCTGAGGATAAC
B16: CCR5-224 site 2 CCR2 (dsDNA)
DNA 1: GTCGTCCTCATCTTAATAAACTGCAAAAA
DNA 2: TTTTTGCAGTTTATTAAGATGAGGACGAC
B17: CCR5-224 site 3 BTBD10 promoter (dsDNA)
DNA 1: GTTTTCCTCATCAAAGCAAACTGCAAAAT
DNA 2: ATTTTGCAGTTTGCTTTGATGAGGAAAAC
B18: CCR5-224 site 15 KCNB2 (dsDNA)
DNA 1: ATGTTCCTCATCTCCCGAAACTGCAAATG
DNA 2: CATTTGCAGTTTCGGGAGATGAGGAACAT
B19: CCR5-224 site 14 (dsDNA)
DNA 1: GTCCTGCTCAGCAAAAGAAACTGAAAAAG
DNA 2: CTTTTTCAGTTTCTTTTGCTGAGCAGGAC
B20: CCR5-224 site 9 (dsDNA)
DNA 1: GTCATCTTCATCAAAAGGAACTGCAAAAC
DNA 2: GTTTTGCAGTTCCTTTTGATGAAGATGAC

These binders were tested against VF2468 ZFN pair expressed in K562 (artificial) (assay: cell_activity; K562). Conditions: tags: FokI cleavage domain.
Sequence of VF2468 ZFN pair expressed in K562 (artificial) (chain, as listed by the source, chain 1 of 2): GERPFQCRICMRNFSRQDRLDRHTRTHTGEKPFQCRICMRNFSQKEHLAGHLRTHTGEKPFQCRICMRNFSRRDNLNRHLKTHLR
Sequence of VF2468 ZFN pair expressed in K562 (artificial) (chain, as listed by the source, chain 2 of 2): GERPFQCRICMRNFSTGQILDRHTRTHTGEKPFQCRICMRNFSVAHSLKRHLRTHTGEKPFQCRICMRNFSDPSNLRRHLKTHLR

Going from B1 to B2, the activity rises from 0.04 % indels to 1.1 % indels.

First: B3
Second: B4
The activity of the first is lower: 0.28 % indels for the first, 1.3 % indels for the second.

First: B5
Second: B6
The activity of the first is lower: 0.042 % indels for the first, 0.6 % indels for the second.

Compared with B7, B8 is higher in activity: 0.029 % indels for the first, 0.1 % indels for the second.

B9 showed an activity of 0.041 % indels.

Each binder was assayed against CCR5-224 ZFN pair (artificial) (assay: cleavage_in_vitro; ZFN amount for 50% cleavage of 8 nM linear substrate, 4 h 37 C, 10 mM Mg acetate). Conditions: tags: N-terminal FLAG, FokI cleavage domain.
Experimental: (§1) FIGS. 6A-D. Expression and quantification of ZFNs. Western blots for CCR5-224 and VF2468 are shown (a) for the ZFN samples used in the in vitro selection, and (b) for quantification. (c) Known quantities of N-terminal FLAG-tagged bacterial alkaline phosphatase (FLAG-BAP) were used to generate a standard curve for ZFN quantification. […] (d) Gels are shown of activity assays of CCR5-224 and VF2468 on an 8 nM linear substrate containing one target cleavage site. The ZFNs were each incubated with their respective substrate for 4 hours at 37° C. DNA in the “+lysate” lane was incubated with an amount of in vitro transcription/translation mixture equivalent to that used in the 2.5 nM ZFN reaction. ZFN-mediated cleavage results in two linear fragments approximately 700 bp and 300 bp in length. 2 nM CCR5-224 and 1 nM VF2468 were the amounts required for 50% cleavage of the linear substrate.
(§2) Test substrates for CCR5-224 and VF2468 were constructed by cloning into the HindIII/XbaI sites of pUC19. PCR with primers “test fwd” and “test rev” and Taq DNA polymerase yielded a linear 1 kb DNA that could be cleaved by the appropriate ZFN into two fragments of sizes ˜300 bp and ˜700 bp. […] Reactions were purified with the Qiagen PCR Purification Kit and analyzed on 1% TAE-agarose gels.

Sequence of CCR5-224 ZFN pair (artificial) (chain, as listed by the source, chain 1 of 2): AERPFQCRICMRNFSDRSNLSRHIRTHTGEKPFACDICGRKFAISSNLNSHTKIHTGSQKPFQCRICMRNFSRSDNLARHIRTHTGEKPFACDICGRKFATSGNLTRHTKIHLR
Sequence of CCR5-224 ZFN pair (artificial) (chain, as listed by the source, chain 2 of 2): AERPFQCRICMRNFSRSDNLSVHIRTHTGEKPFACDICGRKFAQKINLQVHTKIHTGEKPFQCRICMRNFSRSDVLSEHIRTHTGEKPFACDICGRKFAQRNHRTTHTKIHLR

With B10 the EC50 was 2 nM.

The binders below were run against VF2468 ZFN pair (artificial) (assay: cleavage_in_vitro; ZFN amount for 50% cleavage of 8 nM linear substrate, 4 h 37 C, 10 mM Mg acetate; FIG. 9 legend gives spacer as TCGAA). Conditions: tags: N-terminal FLAG, FokI cleavage domain.
Experimental: as §1, §2

Binder B11 has an EC50 of 1 nM.

Each binder was assayed against CCR5-224 ZFN pair expressed in K562 (artificial) (assay: cell_activity; K562). Conditions: tags: FokI cleavage domain.
Experimental: We were unable to obtain site-specific PCR amplification products for three CCR5-224 sites and seven VF2468 sites and therefore could not analyze the occurrence of NHEJ at those loci. Taken together, these observations indicate that off-target sequences identified through the in vitro selection method include many DNA sequences that can be cleaved by ZFNs in human cells.
To deliver ZFN expression plasmids into cells, 15 μg of either active CCR5-224 ZFN DNA or empty vector DNA were used to Nucleofect 2×10⁶ K562 cells in duplicate reactions following the manufacturer's instructions for Cell Line Nucleofector Kit V (Lonza). GFP-positive cells were isolated by FACS 24 hours post-transfection, expanded, and harvested five days post-transfection with the QIAamp DNA Blood Mini Kit (Qiagen).
PCR for 37 potential CCR5-224 substrates and 97 potential VF2468 substrates was performed with Phusion DNA Polymerase (NEB) and primers “[ZFN] […] fwd” and “[ZFN] […] rev” (Table 9) in 1× Phusion HF Buffer supplemented with 3% DMSO. Primers were designed using Primer3³³. The amplified DNA was purified with the Qiagen PCR Purification Kit, eluted with 10 mM Tris-HCl, pH 8.5, and quantified by 1K Chip on a LabChip GX instrument (Caliper Life Sciences) and combined into separate equimolar pools for the catalytically active and empty vector control samples. PCR products were not obtained for 3 CCR5 sites and 7 VF2468 sites, which excluded these samples from further analysis. Multiplexed Illumina library preparation was performed according to the manufacturer's specifications, except that AMPure XP beads (Agencourt) were used for purification following adapter ligation and PCR enrichment steps. Illumina indices 11 (“GGCTAC”) and 12 (“CTTGTA”) were used for ZFN-treated libraries while indices 4 (“TGACCA”) and 6 (“GCCAAT”) were used for the empty vector controls. Library concentrations were quantified by KAPA Library Quantification Kit for Illumina Genome Analyzer Platform (Kapa Biosystems). Equal amounts of the barcoded libraries derived from active- and empty vector-treated cells were diluted to 10 nM and subjected to single read sequencing on an Illumina HiSeq 2000 at the Harvard University FAS Center for Systems Biology Core facility. Sequences were analyzed using Protocol 9 for active ZFN samples and empty vector controls.

Compared with B12, B13 is higher in activity: 0.019 % indels for the first, 0.34 % indels for the second.

Compared with B14, B10 is higher in activity: 0.06 % indels for the first, 44 % indels for the second.

Compared with B15, B16 is higher in activity: 0.12 % indels for the first, 10 % indels for the second.

Going from B17 to B18, the activity rises from 0.07 % indels to 0.071 % indels.

First: B19
Second: B20
The activity of the first is lower: 0.025 % indels for the first, 0.035 % indels for the second.
